Consider 167 variants from the Human Domainome abundance scans (Beltran et al. 2025).

B1: Tudor domain-containing protein 3, residues 554 to 611; numbered along this chain, Q9H7E2 (parent)
chain: KMWKPGDECFALYWEDNKFYRAEVEALHSSGMTAVVKFIDYGNYEEVLLSNIKPIQTE

± gives the uncertainty stated by the source.

The variants in this series derive from B1. Kind of series: abundance fitness (aPCA) (normalised: wild type 0, dead -1); higher = more abundant; growth selection in yeast, the domain comes from the species named. To be noted: Homo sapiens.
On to D16K, for which the abundance fitness is -0.366 ± 0.11.
Then D16M, with -0.754 ± 0.11; and D16R, with -0.308 ± 0.057.
Then D16L, with -0.588 ± 0.085; and D16G, with -0.89 ± 0.077.
To D16H belongs -0.116 ± 0.14; to D16Y, -0.691 ± 0.17.
Consider D16V, for which the abundance fitness is -0.722 ± 0.099.
Regarding D16P, the abundance fitness was -0.602 ± 0.12.
Then D16C, with -0.961 ± 0.14.
D16T: the abundance fitness is -0.377 ± 0.1.
To D16A belongs -0.529 ± 0.08; to D16N, -0.417 ± 0.15.
On to D16I, for which the abundance fitness is -1.04 ± 0.26.
As for D16F, the abundance fitness is -0.76 ± 0.25.
In the case of D16Q, the abundance fitness is -0.498 ± 0.12.
As for T33R, the abundance fitness was -0.088 ± 0.052.
Take T33Y: the abundance fitness is -0.184 ± 0.087.
To T33L belongs -0.331 ± 0.065; to T33I, -0.276 ± 0.094; to T33M, -0.246 ± 0.11.
Then T33W, with -0.321 ± 0.071.
As for T33S, the abundance fitness turned out to be 0.012 ± 0.059.
For T33H, the abundance fitness was -0.126 ± 0.089.
Consider T33Q, for which the abundance fitness is -0.287 ± 0.094.
To T33C belongs -0.14 ± 0.067; to T33A, -0.121 ± 0.075.
Then T33V, with -0.232 ± 0.078; and T33G, with -0.444 ± 0.068; and T33E, with -0.377 ± 0.092.
To T33D belongs -0.877 ± 0.15; to T33P, -1.03 ± 0.14.
As for H28N, the abundance fitness was -0.006 ± 0.094.
Then H28P, with -0.001 ± 0.1; and H28C, with -0.098 ± 0.077.
Then H28L, with -0.087 ± 0.062; and H28R, with -0.183 ± 0.054; and H28I, with -0.508 ± 0.15.
Then H28Y, with -0.401 ± 0.11; and H28M, with -0.118 ± 0.076; and H28W, with -0.871 ± 0.095.
In the case of H28Q, the abundance fitness was -0.088 ± 0.13.
To H28D belongs -0.144 ± 0.11; to H28E, -0.159 ± 0.082; to H28A, 0.024 ± 0.075.
Then H28T, with -0.065 ± 0.075; and H28S, with -0.042 ± 0.066.
To H28F belongs -0.619 ± 0.14; to H28G, 0.034 ± 0.055.
On to N17W, for which the abundance fitness is -0.716 ± 0.13.
Then N17M, with -0.191 ± 0.098.
On to N17D, for which the abundance fitness came out at 0.034 ± 0.1.
Then N17C, with -0.349 ± 0.16; and N17V, with -0.55 ± 0.074.
Then N17E, with -0.021 ± 0.08.
To N17Q belongs -0.1 ± 0.092; to N17H, -0.29 ± 0.15.
Turning to N17F, the abundance fitness was -0.65 ± 0.23.
Then N17I, with -0.742 ± 0.16; and N17T, with -0.366 ± 0.084.
To N17S belongs -0.117 ± 0.072; to N17G, -0.105 ± 0.059; to N17Y, -0.604 ± 0.2.
Then N17R, with -0.084 ± 0.068; and G31T, with 0.02 ± 0.09.
For the variant G31Y, the abundance fitness was -0.269 ± 0.13.
In the case of G31N, the abundance fitness was -0.057 ± 0.14.
Then G31S, with -0.082 ± 0.062; and G31V, with -0.45 ± 0.067.
To G31R belongs -0.033 ± 0.055; to G31W, -0.658 ± 0.099.
Take G31Q: the abundance fitness was -0.043 ± 0.17.
Then G31L, with -0.267 ± 0.075.
To G31C belongs -0.12 ± 0.069; to G31P, -0.48 ± 0.086.
To G31F belongs -0.558 ± 0.12.
In the case of G31K, the abundance fitness is -0.148 ± 0.1.
Then G31D, with -0.198 ± 0.083; and G31H, with -0.099 ± 0.088; and G31A, with 0.015 ± 0.076.
Then G31E, with -0.092 ± 0.093.
Then G31M, with -0.043 ± 0.11; and L27I, with -0.072 ± 0.11; and L27V, with -0.064 ± 0.067.
L27H: the abundance fitness is -0.675 ± 0.18.
Regarding L27N, the abundance fitness is -0.879 ± 0.18.
To L27P belongs -0.973 ± 0.17; to L27F, -0.716 ± 0.14; to L27E, -0.913 ± 0.11.
Then L27G, with -0.974 ± 0.076; and L27C, with -0.183 ± 0.087.
To L27Q belongs -1.13 ± 0.2; to L27R, -0.872 ± 0.078.
With L27S, the abundance fitness is -0.749 ± 0.1.
Consider L27W, for which the abundance fitness is -0.76 ± 0.1.
L27Y: the abundance fitness is -0.911 ± 0.18.
For L27T, the abundance fitness is -0.301 ± 0.12.
In the case of L27M, the abundance fitness is -0.181 ± 0.11.
To L27D belongs -0.871 ± 0.14; to L27A, -0.651 ± 0.1.
As to R21V, the abundance fitness is -0.508 ± 0.078.
Then R21P, with -0.206 ± 0.077; and R21L, with -0.177 ± 0.058.
To R21C belongs -0.826 ± 0.11.
To R21M belongs -0.506 ± 0.096; to R21H, -0.143 ± 0.089; to R21D, -0.582 ± 0.14.
In the case of R21Q, the abundance fitness is -0.13 ± 0.1.
Then R21N, with -0.678 ± 0.15.
To R21G belongs -0.978 ± 0.098; to R21A, -0.289 ± 0.067; to R21E, -0.301 ± 0.099.
Then R21I, with -0.434 ± 0.13.
With R21Y, the abundance fitness was -0.662 ± 0.11.
As to R21T, the abundance fitness is -0.542 ± 0.094.
To R21S belongs -0.622 ± 0.069.
Then R21W, with -0.766 ± 0.093.
Then A34D, with -0.931 ± 0.13; and A34C, with -0.072 ± 0.091; and S30Y, with -0.463 ± 0.1.
Turning to S30P, the abundance fitness is -0.331 ± 0.094.
Consider S30Q, for which the abundance fitness is -0.254 ± 0.11.
To S30K belongs -0.172 ± 0.094; to S30G, -0.132 ± 0.052.
Then S30W, with -0.462 ± 0.097; and S30A, with -0.192 ± 0.061.
To S30L belongs -0.37 ± 0.073; to S30T, -0.119 ± 0.071.
For S30N, the abundance fitness was -0.04 ± 0.099.
S30C: the abundance fitness was -0.109 ± 0.089.
To S30V belongs -0.501 ± 0.063; to S30D, -0.179 ± 0.074.
Then S30M, with -0.282 ± 0.098.
S30I: the abundance fitness was -0.322 ± 0.12.
Then S30F, with -0.435 ± 0.097; and S30E, with -0.143 ± 0.081; and E15F, with -0.149 ± 0.1.
For the variant E15R, the abundance fitness came to 0.022 ± 0.056.
Then E15L, with -0.064 ± 0.06; and E15Y, with 0.099 ± 0.11; and E15W, with -0.27 ± 0.074.
To E15H belongs -0.251 ± 0.11; to E15N, -0.105 ± 0.1.
For the variant E15I, the abundance fitness was -0.156 ± 0.11.
Then E15P, with -0.185 ± 0.093; and E15V, with -0.026 ± 0.061.
To E15S belongs -0.114 ± 0.06; to E15T, -0.139 ± 0.073.
In the case of E15G, the abundance fitness is -0.142 ± 0.062.
To E15C belongs -0.21 ± 0.098; to E15K, 0.081 ± 0.082; to E15D, -0.336 ± 0.12.
To E15Q belongs -0.111 ± 0.11.
Turning to M32A, the abundance fitness is -0.036 ± 0.068.
For M32C, the abundance fitness was -0.098 ± 0.082.
Then M32I, with -0.24 ± 0.088.
Then M32E, with 0.009 ± 0.083; and M32F, with -0.005 ± 0.081; and M32G, with -0.031 ± 0.055.
Then M32N, with 0.003 ± 0.091; and M32V, with -0.054 ± 0.055.
Take M32Q: the abundance fitness came to 0.046 ± 0.078.
Then M32D, with -0.057 ± 0.097; and M32Y, with 0.195 ± 0.12.
Then M32L, with -0.045 ± 0.057; and M32K, with -0.165 ± 0.091.
To M32T belongs 0.046 ± 0.075.
